Assay results as given in US20060252130A1 (ACGT PREGENOMICS, published 2006).
Ends that are not written are not given here.

B1: fluorescence-marked proline-rich peptide Cys-Ser-Gly-Pro-Pro-Pro-Pro-Pro-Pro-Pro-Pro-Leu-Pro (fluorescein-maleimide label) (peptide)
peptide: C(fluorescein‑maleimide)SGPPPPPPPPLP
notes: also called fluorescence-labeled peptide; fluorescence-marked peptide
B2: synthetic proline-rich peptide Cys-Ser-Gly-Pro-Pro-Pro-Pro-Pro-Pro-Pro-Pro-Leu-Pro (peptide)
peptide: CSGPPPPPPPPLP
notes: also called CSGP8LP; proline peptide

What was measured:
PyVP1-WW150 [1] = target: T1, PyVP1-WW150 (mouse polyoma virus; Mus musculus …); experiment: gel filtration (TSK gel G5000PWXL), co-elution of labelled peptide with capsids and pentamers, absorption at 490 nm
T1 construct: WW domain inserted between VP1 positions 148 and 149; Soluble pentamer after intein cleavage; also called PyVP1-WW150 variant; PyVP1-WW150 protein

PyVP1-WW150-D8C = target: T2, PyVP1-WW150-D8C (mouse polyoma virus; Mus musculus …); experiment: surface plasmon resonance; strengthened by 500 mM ammonium sulfate
T2 construct: Position 8 is counted on the WW domain itself

PyVP1-WW150 [2] = target: T1, PyVP1-WW150; experiment: SPR (Biacore X), peptide on CM5 chip; summary of the three analyses of example 2
PyVP1-WW150 [3] = target: T1, PyVP1-WW150; experiment: SPR (Biacore X), peptide on CM5 chip, Dulbecco's PBS
PyVP1-WW150 [4] = target: T1, PyVP1-WW150; experiment: SPR (Biacore X), peptide on CM5 chip, 10 mM HEPES, 1 mM EDTA, 150 mM NaCl, pH 7.2, 25 C, protein 5 to 50 nM
[5] = target: B1; experiment: incubation of labelled peptide with PyVP1-3C-WW[N-14], capsid assembly, gel filtration
[6] = target: B2; experiment: affinity column with peptide, crude extract, wash with 2 M NaCl, elution with 2% SDS, SDS gel

## B1
PyVP1-WW150 [1]
  binding result: binds

## B2
PyVP1-WW150-D8C
  binding result: binds
PyVP1-WW150 [2]
  Kd: 20 nM
PyVP1-WW150 [3]
  koff: 0.0018 s⁻¹
  kon: 200000 M⁻¹ s⁻¹
PyVP1-WW150 [4]
  Kd: 5 nM

B3: PyVP1-3C-WW[N-14] (other)
chain: MSGWTEHKSPDGRTYYYNTETKQSTWEKPDDGHMSTKACPRPAPVPKLLIKGGMEVLDLVTGPDSVTEIEAFLNPRMGQPPTPESLTEGGQYYGWSRGINLATSDTEDSPGNNTLPTWSMAKLQLPMLNEDLTCDTLQMWEAVSVKTEVVGSGSLLDVHGFNKPTDTVNTKGISTPVEGSQYHVFAVGGEPLDLQGLVTDARTKYKEEGVVTIKTITKKDMVNKDQVLNPISKAKLDKDGMYPVEIWHPDPAKNENTRYFGNYTGGTCTPPVLQFTNTLTTVLLDENGVGPLSKGEGLYLSSVDIMGWRVTRNYDVHHWRGLPRYFKITLRKRWVKNPYPMASLISSLFNNMLPQVQGQPMEGENTQVEEVRVYDGTEPVPGDPDMTRYVDRFGKTKTVFPPG
notes: The range 15-384 follows from 'N-terminus shortened by 14 amino acids'
[5]
  binding result: binds

B4: [PyVP1-3C-WW1]-intein-CBD (other)
chain: MSGWTEHKSPDGRTYYYNTETKQSTWEKPDDGHMAPKRKSGVSKSETKSTKACPRPAPVPKLLIKGGMEVLDLVTGPDSVTEIEAFLNPRMGQPPTPESLTEGGQYYGWSRGINLATSDTEDSPGNNTLPTWSMAKLQLPMLNEDLTCDTLQMWEAVSVKTEVVGSGSLLDVHGFNKPTDTVNTKGISTPVEGSQYHVFAVGGEPLDLQGLVTDARTKYKEEGVVTIKTITKKDMVNKDQVLNPISKAKLDKDGMYPVEIWHPDPAKNENTRYFGNYTGGTCTPPVLQFTNTLTTVLLDENGVGPLSKGEGLYLSSVDIMGWRVTRNYDVHHWRGLPRYFKITLRKRWVKNPYPMASLISSLFNNMLPQVQGQPMEGENTQVEEVRVYDGTEPVPGDPDMTRYVDRFGKTKTVFPPG
notes: also called (PyVP1-3C-WW1)-intein-CBD fusion protein
[6]
  binding result: binds
